biological target: human recombinant FcRn protein (human, UniProt P55899 24-297); experiment: Biacore
Sequence (P55899 24-297): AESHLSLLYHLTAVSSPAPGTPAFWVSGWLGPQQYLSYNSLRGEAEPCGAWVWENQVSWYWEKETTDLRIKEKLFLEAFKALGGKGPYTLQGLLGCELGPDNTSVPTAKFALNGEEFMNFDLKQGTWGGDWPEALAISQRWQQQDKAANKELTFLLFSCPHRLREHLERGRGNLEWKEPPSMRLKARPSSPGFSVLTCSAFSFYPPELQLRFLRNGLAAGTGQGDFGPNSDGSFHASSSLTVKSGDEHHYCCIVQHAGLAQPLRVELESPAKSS

| Binder | Kd |
| --- | --- |
| ABD02 (SEQ ID NO: 4) (designed binder) GPSVFLFPPKPKDTLMISRTPEVTCVFVDYRADYLEVKFNWYVDGAEVHNAKTKPRQYDPLYGYRVVSVLTVLHQDWLNGKEYTCKVSNKALPAPIEKTISKDK | 21 nM |
| ABD01 (SEQ ID NO: 3) (designed binder) GPSVFLFPPKPKDTLMISRTPEVTCVFVDYRADYLEVKFNWYVDGVEVHNAKTKPRQYDPLYGYRVVSVLTVLHQDWLNGKEYTCKVSNKALPAPIEKTISKDK | 4.18 nM |
| ABD04 (SEQ ID NO: 6) (designed binder) GPSVFLFPPKPKDTMMISRTPEVTCVFVDYRADYLEVKFNWYVDGAEVHHAKTKPRQYDPLYGYRVVSVLTVSHQDWLNGKEYTCKVSNKALPAPIEKTISKDK | 8.9 nM |
| template (Macaque) CH2 domain molecule of SEQ ID NO: 2 (other) GPSVFLFPPKPKDTLMISRTPEVTCVVVDVSQEDPDVKFNWYVNGAEVHHAQTKPRETQYNSTYRVVSVLTVTHQDWLNGKEYTCKVSNKALPAPIQKTISKDK | 13 nM |
| ABD05 (SEQ ID NO: 7) (designed binder) GPSVFLFPPKPKDTLMISRTPEVTCVFVDYRADYLEVKFNWYVDGAEVHHAKTKPRQYDPLYGYRVVSVLTVSHQDWLNGKEYTCKVSNKALPAPIEKTISKDK | 9.1 nM |
| B11, a template CH2 domain molecule (SEQ ID NO: 12) (designed binder) GPSVFLFPPKPKDTLMISRTPEVTCVVVDYRADYLEVKFNWYVDGVEVHNAKTKPRQYDPLYGYRVVSVLTVLHQDWLNGKEYKCKVSNKALPAPIEKTISKAK | 12 nM |
| ABD03 (SEQ ID NO: 5) (designed binder) GPSVFLFPPKPKDTLMISRTPEVTCVFVDYRADYLEVKFNWYVDGAEVHHAKTKPRQYDPLYGYRVVSVLTVSHQDWLNGKEYTCKVSNKALPAPIQKTISKDK | 11.4 nM |
